According to the supplement of paper PMC9876800:

Test system: peptide library, one residue held at a place counted from the S/T acceptor
Test: relative phosphorylation of the sub-library (ratio to the mean residue at this position); higher = residue favoured
Summary of the method: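 Purified recombinant kinases, either human or orthologue constructs, were incubated in 384-well plates with biotinylated degenerate peptide sub-libraries. Each sub-library fixed one residue at one position around a central Ser/Thr. Peptides at 50 μM and 50 μM ATP spiked with γ-32P-ATP were used for 90 min under kinase-specific conditions, and spots on streptavidin membranes were phosphorimaged and quantified by densitometry. Relative sub-library phosphorylation is expressed as a ratio to the mean residue at that position.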

BMPR2, construct: aa172-end, human, sequence (Q13873 172-1038, looked up): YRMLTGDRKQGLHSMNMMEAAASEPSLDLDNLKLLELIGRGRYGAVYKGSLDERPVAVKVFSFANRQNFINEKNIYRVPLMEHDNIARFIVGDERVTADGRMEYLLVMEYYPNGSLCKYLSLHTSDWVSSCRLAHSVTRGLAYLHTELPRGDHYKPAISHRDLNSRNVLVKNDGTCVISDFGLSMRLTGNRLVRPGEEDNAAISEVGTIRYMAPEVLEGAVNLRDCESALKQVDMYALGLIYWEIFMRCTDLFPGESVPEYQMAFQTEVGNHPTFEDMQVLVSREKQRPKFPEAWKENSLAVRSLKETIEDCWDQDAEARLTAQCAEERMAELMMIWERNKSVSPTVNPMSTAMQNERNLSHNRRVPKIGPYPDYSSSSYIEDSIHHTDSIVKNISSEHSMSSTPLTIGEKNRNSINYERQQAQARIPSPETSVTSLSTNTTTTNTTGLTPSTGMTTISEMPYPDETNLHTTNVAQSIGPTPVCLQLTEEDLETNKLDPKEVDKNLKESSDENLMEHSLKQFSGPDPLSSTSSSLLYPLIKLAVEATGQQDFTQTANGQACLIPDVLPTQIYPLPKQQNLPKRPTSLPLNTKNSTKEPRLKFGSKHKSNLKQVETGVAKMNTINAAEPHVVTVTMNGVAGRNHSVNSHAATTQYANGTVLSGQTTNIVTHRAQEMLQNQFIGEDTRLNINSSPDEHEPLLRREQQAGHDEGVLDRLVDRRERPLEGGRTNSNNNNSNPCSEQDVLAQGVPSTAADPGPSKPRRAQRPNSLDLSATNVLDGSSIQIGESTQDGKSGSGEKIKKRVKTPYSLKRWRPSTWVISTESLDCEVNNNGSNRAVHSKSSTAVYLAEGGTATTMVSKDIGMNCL
NEK3, construct: Full length, human, sequence (P51956 whole entry, looked up): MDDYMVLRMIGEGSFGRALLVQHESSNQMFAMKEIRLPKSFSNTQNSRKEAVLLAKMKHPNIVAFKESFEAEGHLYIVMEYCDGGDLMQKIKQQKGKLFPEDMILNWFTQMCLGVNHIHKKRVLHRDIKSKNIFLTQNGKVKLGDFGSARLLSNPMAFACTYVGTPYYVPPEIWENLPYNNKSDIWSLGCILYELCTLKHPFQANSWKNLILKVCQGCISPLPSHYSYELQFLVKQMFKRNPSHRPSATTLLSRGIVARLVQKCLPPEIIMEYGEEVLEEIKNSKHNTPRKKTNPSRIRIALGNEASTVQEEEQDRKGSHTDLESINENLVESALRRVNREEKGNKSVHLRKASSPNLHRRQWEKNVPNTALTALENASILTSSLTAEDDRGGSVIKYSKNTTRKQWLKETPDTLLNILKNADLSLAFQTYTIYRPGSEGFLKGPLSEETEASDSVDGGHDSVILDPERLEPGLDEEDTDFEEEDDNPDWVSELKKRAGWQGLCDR
PRKCZ, construct: Full length, human, sequence (Q05513 whole entry, looked up): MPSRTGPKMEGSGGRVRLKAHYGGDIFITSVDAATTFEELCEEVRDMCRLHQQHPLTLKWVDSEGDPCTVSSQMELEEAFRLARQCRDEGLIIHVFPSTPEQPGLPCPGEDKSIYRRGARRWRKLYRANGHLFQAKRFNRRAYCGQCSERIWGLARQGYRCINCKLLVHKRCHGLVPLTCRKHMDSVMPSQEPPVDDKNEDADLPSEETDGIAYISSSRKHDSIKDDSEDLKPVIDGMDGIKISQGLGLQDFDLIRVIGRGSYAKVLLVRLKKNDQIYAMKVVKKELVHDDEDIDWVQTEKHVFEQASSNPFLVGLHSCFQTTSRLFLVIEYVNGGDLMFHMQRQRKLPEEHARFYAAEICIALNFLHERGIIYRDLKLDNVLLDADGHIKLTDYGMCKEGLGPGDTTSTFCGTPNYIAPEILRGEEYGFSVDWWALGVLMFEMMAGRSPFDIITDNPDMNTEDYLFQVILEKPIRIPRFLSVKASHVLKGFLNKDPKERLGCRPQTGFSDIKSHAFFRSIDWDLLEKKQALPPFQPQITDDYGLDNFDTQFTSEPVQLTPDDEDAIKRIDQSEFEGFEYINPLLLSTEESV

BMPR2, construct: aa172-end, human (from UniProt Q13873)
relative phosphorylation
Conditions	at +1	at +2	at +3	at +4	at -1	at -2	at -3	at -4	at -5
A fixed	0.89	1	0.941	0.96	0.845	0.887	0.99	1.11	1.08
D fixed	0.946	1.13	0.871	0.94	0.963	1.86	1.24	1.1	1.08
E fixed	1.08	1.08	0.844	0.951	0.944	1.91	1.19	1.18	1.04
F fixed	0.929	0.88	0.927	0.94	1.1	0.825	0.977	0.973	1.06
G fixed	0.969	1.04	1.1	1.02	0.839	1.05	1.08	1.01	1.06
H fixed	1.1	1.04	1.03	1	1.01	0.904	1.08	0.978	0.96
I fixed	1.02	0.889	0.92	0.868	0.862	0.728	0.892	0.911	0.971
K fixed	0.831	1.03	1.04	1.1	0.822	0.791	0.835	0.935	0.913
L fixed	1.04	0.905	0.934	0.935	1.1	0.786	0.869	0.928	0.913
M fixed	1.15	0.989	0.93	0.943	1.24	0.797	0.955	0.936	0.895
N fixed	1.02	0.987	1.01	0.963	0.968	1.05	1.03	0.938	0.898
P fixed	0.724	1.02	1.17	1.08	0.738	0.809	0.965	1.09	0.948
Q fixed	1.04	1.01	0.949	0.973	0.986	1.15	1.04	0.919	0.861
R fixed	0.933	1	1.22	1.18	0.905	0.816	0.873	0.867	0.956
V fixed	0.999	0.972	0.989	0.926	1.03	0.822	0.862	0.979	1.01
W fixed	1.1	0.94	0.998	1.16	1.24	0.855	1.03	1.05	1.18
Y fixed	1.24	1.1	1.12	1.05	1.4	0.95	1.11	1.09	1.18
pThr fixed	1.02	1.04	0.847	0.873	0.862	0.993	1.15	1.08	0.979
pTyr fixed	0.907	0.891	0.883	0.86	1.56	1.06	1.34	1.1	1.07

PRKCD, construct: Full length, human (from UniProt Q05655)
relative phosphorylation
Conditions	at +1	at +2	at +3	at +4	at -1	at -2	at -3	at -4	at -5
A fixed	0.496	0.437	0.73	0.842	0.91	0.9	0.795	1.04	1.04
D fixed	0.253	0.525	0.696	1.03	0.598	0.587	0.699	0.932	1.2
E fixed	0.309	0.317	0.608	0.63	0.465	0.531	0.579	0.972	0.903
F fixed	1.51	0.438	0.642	0.4	0.549	0.621	0.594	0.703	0.815
G fixed	0.553	0.459	1.11	1.28	1.64	1.2	0.977	1.36	1.18
H fixed	0.803	1.39	0.871	1.23	0.961	1.13	1.17	1.14	1.07
I fixed	1.65	0.64	0.781	0.695	0.355	0.466	0.401	0.617	0.809
K fixed	1.74	3.33	2.15	2.05	2.3	1.9	1.91	1.55	1.48
L fixed	1.21	0.564	0.846	0.757	0.658	0.506	0.464	0.608	0.78
M fixed	1.58	0.69	0.801	0.731	0.852	0.677	0.576	0.807	0.657
N fixed	0.685	1	1.04	1.13	1.38	1.22	1.07	1.1	0.932
P fixed	0.343	0.487	0.68	1.54	1.29	0.835	1.12	1.18	1.17
Q fixed	1.18	0.93	1.04	1.19	1.35	1.23	1.01	0.979	0.868
R fixed	1.6	3.33	2.03	1.48	1.74	3.16	3.86	1.58	1.65
V fixed	1.39	0.648	0.742	0.65	0.583	0.522	0.406	0.691	0.769
W fixed	0.743	0.741	1.12	0.746	0.527	0.806	0.658	1.1	0.993
Y fixed	0.961	1.07	1.11	0.625	0.834	0.713	0.707	0.638	0.685
pThr fixed	0.685	0.458	0.52	0.675	0.341	0.563	0.624	0.713	0.644
pTyr fixed	0.469	0.662	0.56	0.396	0.465	0.576	0.541	0.524	0.673

PRKCZ, construct: Full length, human (from UniProt Q05513)
relative phosphorylation
Conditions	at +1	at +2	at +3	at +4	at -1	at -2	at -3	at -4	at -5
A fixed	0.673	0.759	0.778	1	1.16	0.809	0.78	1.13	1.32
D fixed	0.193	0.206	0.324	0.596	0.387	0.399	0.425	0.666	0.79
E fixed	0.293	0.203	0.319	0.563	0.375	0.355	0.437	0.661	0.732
F fixed	1.37	0.662	0.927	0.827	0.468	1	0.842	0.827	1.23
G fixed	1.1	0.52	1.07	1.07	1.21	1.45	1.28	1.57	1.52
H fixed	0.752	1.35	1.33	1.35	1.06	1.07	1.08	1.03	1.08
I fixed	0.868	0.646	0.646	0.608	0.259	0.288	0.378	0.468	0.533
K fixed	2.46	2.13	2.15	2.05	3.12	1.18	1.91	1.29	1.15
L fixed	0.768	0.577	0.834	0.64	0.457	0.47	0.535	0.59	0.803
M fixed	1.42	0.912	0.759	0.706	0.755	0.731	0.659	0.783	0.694
N fixed	0.832	0.908	0.975	1.08	1.26	1.19	1.11	1.4	1.25
P fixed	0.344	0.512	0.706	1.17	0.986	1.16	1.1	1.45	1.12
Q fixed	1.23	0.916	0.978	1.14	1.19	0.983	1.08	1.04	0.788
R fixed	2.39	4.07	2.08	1.34	2.43	2.99	3.2	1.45	1.31
V fixed	0.844	0.682	0.671	0.703	0.406	0.342	0.415	0.483	0.607
W fixed	0.61	0.803	1.28	1.13	0.579	0.973	0.909	1.33	1.23
Y fixed	0.841	1.14	1.17	1.01	0.89	1.61	0.855	0.824	0.837
pThr fixed	0.461	0.391	0.519	0.651	0.314	0.632	0.696	0.847	0.985
pTyr fixed	0.363	0.396	0.623	0.538	0.451	0.621	0.831	0.761	0.857

NEK3, construct: Full length, human (from UniProt P51956)
relative phosphorylation
Conditions	at +1	at +2	at +3	at +4	at -1	at -2	at -3	at -4	at -5
A fixed	0.842	0.788	1.09	0.919	1.02	0.977	1.09	1.16	1.06
D fixed	0.145	0.299	0.257	0.346	0.588	0.551	0.343	0.456	0.653
E fixed	0.12	0.323	0.219	0.321	0.496	0.632	0.36	0.511	0.632
F fixed	1.67	0.786	1.1	0.796	0.841	1.37	1.98	1.43	1.05
G fixed	0.687	1.41	1.42	1.64	1.33	1.45	1.51	1.28	1.25
H fixed	1.13	1.45	1.07	1.35	1.45	1.21	1.11	1.03	1.17
I fixed	1.65	0.967	1.12	0.984	0.629	0.749	0.642	0.798	0.97
K fixed	0.579	1.4	1.07	1.24	1.07	0.866	0.478	1.02	1.1
L fixed	1.29	0.674	1.22	0.841	0.865	1.19	1.65	1.09	0.959
M fixed	1.94	1.09	1.05	0.982	1.59	1.42	1.87	1.2	1.27
N fixed	0.416	1.21	0.721	1.05	1.03	0.903	0.657	0.848	1.02
P fixed	0.351	0.719	1.2	1.38	0.204	0.259	0.495	0.597	0.821
Q fixed	0.719	0.826	0.873	0.769	0.846	0.826	0.561	0.867	0.74
R fixed	0.807	2.17	1.28	1.6	2	0.822	1.05	1.05	1.54
V fixed	1.66	0.904	1.01	0.768	0.739	0.734	0.486	0.823	0.7
W fixed	1.56	0.774	1.27	1.08	0.938	1.49	1.42	1.79	0.993
Y fixed	1.42	1.21	1.05	0.958	1.36	1.55	1.28	1.05	1.07
pThr fixed	0.188	0.183	0.26	0.166	0.146	0.255	0.386	0.57	0.612
pTyr fixed	0.165	0.278	0.254	0.254	0.414	0.612	0.399	0.446	0.642
